Assay results reported in PMC4681436.
Several values for one entry are separate records, joined by “and”; a condition that tells them apart may be missing. Equal values may be shown once. Values belong to the substance of their own block, whether it stands above or below them.

Assays:
CC(C)(C)OC(=O)NC1CCOC1=O = assay: purified protein; details: 1 mM Hepes pH 7.5, 30 μM ZnSO4, 1% methanol, dizinc enzyme
CCCC(=O)N[C@H]1CCOC1=O = assay: purified protein; details: 1 mM Hepes pH 7.5, 30 μM ZnSO4, 1% methanol, dizinc enzyme
CCCCC(=O)N[C@H]1CCOC1=O = assay: purified protein; details: 1 mM Hepes pH 7.5, 30 μM ZnSO4, 1% methanol, dizinc enzyme
[1] = tested on: CCCCCC(=O)CC(=O)N[C@H]1CCOC1=O; assay: purified protein; details: 1 mM Hepes pH 7.5, 30 μM ZnSO4, 1% methanol, dizinc enzyme
CCCCCC(=O)N[C@H]1CCOC1=O = assay: purified protein; details: 1 mM Hepes pH 7.5, 30 μM ZnSO4, 1% methanol, dizinc enzyme
[2] = tested on: CCCCCCC(=O)N[C@H]1CCOC1=O; assay: purified protein; details: 1 mM Hepes pH 7.5, 30 μM ZnSO4, 1% methanol, dizinc enzyme
[3] = tested on: CCCCCCCC(=O)N[C@H]1CCOC1=O; assay: purified protein; details: 1 mM Hepes pH 7.5, 30 μM ZnSO4, 1% methanol, dizinc enzyme
[4] = tested on: CCCCCCCCCC(=O)N[C@H]1CCOC1=O; assay: purified protein; details: 1 mM Hepes pH 7.5, 30 μM ZnSO4, 1% methanol, dizinc enzyme
[5] = tested on: CCCCCCCCCCCC(=O)N[C@H]1CCOC1=O; assay: purified protein; details: 1 mM Hepes pH 7.5, 30 μM ZnSO4, 1% methanol, dizinc enzyme
[6] = tested on: O=C(/C=C/c1ccccc1)N[C@H]1CCOC1=O; assay: purified protein; details: 1 mM Hepes pH 7.5, 30 μM ZnSO4, 1% methanol, dizinc enzyme
[7] = target: AidC, N-acyl-L-homoserine lactone (AHL) lactonase from Chryseobacterium sp. strain StRB126 (Chryseobacterium sp. strain StRB126); assay: SEC-MALS

Substance: AidC (Chryseobacterium sp. StRB126)
Km (CC(C)(C)OC(=O)NC1CCOC1=O): 740 ± 70 µM
kcat (CC(C)(C)OC(=O)NC1CCOC1=O): 44 ± 1 s⁻¹
kcat/Km (CC(C)(C)OC(=O)NC1CCOC1=O): 59000 M⁻¹ s⁻¹
Km (CCCC(=O)N[C@H]1CCOC1=O): 470 ± 60 µM
kcat (CCCC(=O)N[C@H]1CCOC1=O): 39 ± 2 s⁻¹
kcat/Km (CCCC(=O)N[C@H]1CCOC1=O): 83000 M⁻¹ s⁻¹
Km (CCCCC(=O)N[C@H]1CCOC1=O): 130 ± 20 µM
kcat (CCCCC(=O)N[C@H]1CCOC1=O): 57 ± 3 s⁻¹
kcat/Km (CCCCC(=O)N[C@H]1CCOC1=O): 440000 M⁻¹ s⁻¹
Km [1]: 130 ± 20 µM
kcat [1]: 28 ± 1 s⁻¹
kcat/Km [1]: 220000 M⁻¹ s⁻¹
Km (CCCCCC(=O)N[C@H]1CCOC1=O): 61 ± 4 µM
kcat (CCCCCC(=O)N[C@H]1CCOC1=O): 59 ± 1 s⁻¹
kcat/Km (CCCCCC(=O)N[C@H]1CCOC1=O): 970000 M⁻¹ s⁻¹
Km [2]: 47 ± 5 µM
kcat [2]: 80 ± 2 s⁻¹
kcat/Km [2]: 1.7e+06 M⁻¹ s⁻¹
Km [3]: 83 ± 10 µM
kcat [3]: 45 ± 3 s⁻¹
kcat/Km [3]: 540000 M⁻¹ s⁻¹
Km [4]: 12 ± 4 µM
kcat [4]: 5.2 ± 0.4 s⁻¹
kcat/Km [4]: 430000 M⁻¹ s⁻¹
Km [5]: 7 ± 4 µM
kcat [5]: 0.4 ± 0.05 s⁻¹
kcat/Km [5]: 57000 M⁻¹ s⁻¹
Km [6]: 470 ± 80 µM
kcat [6]: 25 ± 2 s⁻¹
kcat/Km [6]: 53000 M⁻¹ s⁻¹

stoichiometry N [7]: 2 and 4
Substance: AidC, N-acyl-L-homoserine lactone (AHL) lactonase from Chryseobacterium sp. strain StRB126 (enzyme)
